Holding throughout (conditions): Homo sapiens
Substrate in data set [1]: Cc1ccc(Oc2ccnc3cc(-c4cnn(C5CCNCC5)c4)ccc23)cc1
Substrate in data set [2]: Cc1ccc(Oc2ccnc3cc(-c4cnn(C5CCNCC5)c4)ccc23)cc1
The source holds these as a separate data set.

Substrate in data set [3]: Cc1ccc(Oc2ccnc3cc(-c4cnn(C5CCNCC5)c4)ccc23)cc1
This is another data set of the same source.

Substrate in data set [4]: Cc1ccc(Oc2ccnc3cc(-c4cnn(C5CCNCC5)c4)ccc23)cc1
The source holds these as a separate data set.

Substrate in data set [5]: Cc1ccc(Oc2ccnc3cc(-c4cnn(C5CCNCC5)c4)ccc23)cc1
The source holds these as a separate data set.

B1: ALK tyrosine kinase receptor (Homo sapiens), Q9UM73 L1196M (protein)
chain: MGAIGLLWLLPLLLSTAAVGSGMGTGQRAGSPAAGPPLQPREPLSYSRLQRKSLAVDFVVPSLFRVYARDLLLPPSSSELKAGRPEARGSLALDCAPLLRLLGPAPGVSWTAGSPAPAEARTLSRVLKGGSVRKLRRAKQLVLELGEEAILEGCVGPPGEAAVGLLQFNLSELFSWWIRQGEGRLRIRLMPEKKASEVGREGRLSAAIRASQPRLLFQIFGTGHSSLESPTNMPSPSPDYFTWNLTWIMKDSFPFLSHRSRYGLECSFDFPCELEYSPPLHDLRNQSWSWRRIPSEEASQMDLLDGPGAERSKEMPRGSFLLLNTSADSKHTILSPWMRSSSEHCTLAVSVHRHLQPSGRYIAQLLPHNEAAREILLMPTPGKHGWTVLQGRIGRPDNPFRVALEYISSGNRSLSAVDFFALKNCSEGTSPGSKMALQSSFTCWNGTVLQLGQACDFHQDCAQGEDESQMCRKLPVGFYCNFEDGFCGWTQGTLSPHTPQWQVRTLKDARFQDHQDHALLLSTTDVPASESATVTSATFPAPIKSSPCELRMSWLIRGVLRGNVSLVLVENKTGKEQGRMVWHVAAYEGLSLWQWMVLPLLDVSDRFWLQMVAWWGQGSRAIVAFDNISISLDCYLTISGEDKILQNTAPKSRNLFERNPNKELKPGENSPRQTPIFDPTVHWLFTTCGASGPHGPTQAQCNNAYQNSNLSVEVGSEGPLKGIQIWKVPATDTYSISGYGAAGGKGGKNTMMRSHGVSVLGIFNLEKDDMLYILVGQQGEDACPSTNQLIQKVCIGENNVIEEEIRVNRSVHEWAGGGGGGGGATYVFKMKDGVPVPLIIAAGGGGRAYGAKTDTFHPERLENNSSVLGLNGNSGAAGGGGGWNDNTSLLWAGKSLQEGATGGHSCPQAMKKWGWETRGGFGGGGGGCSSGGGGGGYIGGNAASNNDPEMDGEDGVSFISPLGILYTPALKVMEGHGEVNIKHYLNCSHCEVDECHMDPESHKVICFCDHGTVLAEDGVSCIVSPTPEPHLPLSLILSVVTSALVAALVLAFSGIMIVYRRKHQELQAMQMELQSPEYKLSKLRTSTIMTDYNPNYCFAGKTSSISDLKEVPRKNITLIRGLGHGAFGEVYEGQVSGMPNDPSPLQVAVKTLPEVCSEQDELDFLMEALIISKFNHQNIVRCIGVSLQSLPRFILMELMAGGDLKSFLRETRPRPSQPSSLAMLDLLHVARDIACGCQYLEENHFIHRDIAARNCLLTCPGPGRVAKIGDFGMARDIYRASYYRKGGCAMLPVKWMPPEAFMEGIFTSKTDTWSFGVLLWEIFSLGYMPYPSKSNQEVLEFVTSGGRMDPPKNCPGPVYRIMTQCWQHQPEDRPNFAIILERIEYCTQDPDVINTALPIEYGPLVEEEEKVPVRPKDPEGVPPLLVSQQAKREEERSPAAPPPLPTTSSGKAAKKPTAAEISVRVPRGPAVEGGHVNMAFSQSNPPSELHKVHGSRNKPTSLWNPTYGSWFTEKPTKKNNPIAKKEPHDRGNLGLEGSCTVPPNVATGRLPGASLLLEPSSLTANMKEVPLFRLRHFPCGNVNYGYQQQGLPLEAATAPGAGHYEDTILKSKNSMNQPGP
The term Km denotes the concentration of substrate that gives half-maximal velocity. For the protein B1, the Michaelis-Menten constant (Km) in data set [1] was determined as 94.6 µM; in data set [2], 32.6 µM; in data set [3], 860 µM; in data set [4] it was 58.8 µM; in data set [5], 298 µM.

The values above are taken from ChEMBL document CHEMBL4024756, “Identification of 4-Phenoxyquinoline Based Inhibitors for L1196M Mutant of Anaplastic Lymphoma Kinase by Structure-Based Design” (J Med Chem, 2017).
